Experimental data taken from article PMC10450202, “Updated protein domain annotation of the PARP protein family sheds new light on biological function”.

T1: PARP14 KH1-KH2 (human, UniProt Q460N5 316-468)
T1 sequence: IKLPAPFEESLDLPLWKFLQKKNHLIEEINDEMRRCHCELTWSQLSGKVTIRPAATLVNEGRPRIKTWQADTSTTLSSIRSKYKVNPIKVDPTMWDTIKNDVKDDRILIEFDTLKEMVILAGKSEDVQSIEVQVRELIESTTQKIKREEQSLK

T2: PARP14 KH8-WWE-ART (human, UniProt Q460N5 1453-1801)
T2 sequence: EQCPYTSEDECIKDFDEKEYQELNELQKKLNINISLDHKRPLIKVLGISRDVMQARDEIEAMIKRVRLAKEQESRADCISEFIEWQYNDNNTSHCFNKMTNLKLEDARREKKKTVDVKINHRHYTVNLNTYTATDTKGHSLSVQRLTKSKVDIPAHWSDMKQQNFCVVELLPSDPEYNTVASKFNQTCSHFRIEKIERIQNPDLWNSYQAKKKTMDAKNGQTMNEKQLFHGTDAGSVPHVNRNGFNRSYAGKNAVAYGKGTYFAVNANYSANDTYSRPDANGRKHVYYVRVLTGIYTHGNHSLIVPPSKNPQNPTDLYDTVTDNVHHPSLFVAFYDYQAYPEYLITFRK

T3: PARP14 WWE-ART (human, UniProt Q460N5 1459-1801)
T3 sequence: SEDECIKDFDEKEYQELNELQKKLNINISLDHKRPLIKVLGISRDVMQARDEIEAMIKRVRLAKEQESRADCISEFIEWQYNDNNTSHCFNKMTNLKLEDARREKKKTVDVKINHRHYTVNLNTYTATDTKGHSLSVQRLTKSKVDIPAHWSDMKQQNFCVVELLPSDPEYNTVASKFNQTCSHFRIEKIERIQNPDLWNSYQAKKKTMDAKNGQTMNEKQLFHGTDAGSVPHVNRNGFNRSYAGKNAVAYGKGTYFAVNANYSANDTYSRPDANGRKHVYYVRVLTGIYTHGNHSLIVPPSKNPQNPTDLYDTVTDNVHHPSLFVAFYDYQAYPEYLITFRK


Assays:
[1] = molecular target: PARP1 full-length (human, UniProt P09874 2-1014, V762A); experiment: NMR; 35.5 uM protein, 40 uM DNA; 15N-1H TROSY, 25 C; EMSA: 20 mM HEPES-KOH pH 7.6, 5 mM MgCl2, 1 mM DTT, 20% glycerol, 1 h room temperature, 6% native PAGE; NMR: 10 mM sodium phosphate, 222 mM NaCl, 2.7 mM KCl, 2; settings: protein: recombinant; tags: N-terminal His6 (MKHHHHHHKMQ); dumbbell: two hairpins, mimics single-strand break
[2] = molecular target: T1, PARP14 KH1-KH2; experiment: EMSA; 0.5 uM RNA, 1-5 uM protein, 5 mM Mg2+; efficient binding at micromolar concentrations; EMSA: 20 mM HEPES-KOH pH 7.6, 5 mM MgCl2, 1 mM DTT, 20% glycerol, 1 h room temperature, 6% native PAGE; NMR: 10 mM sodium phosphate, 222 mM NaCl, 2.7 mM KCl, 2; settings: protein: recombinant; label: 5' Cy3; single strand
[3] = molecular target: T2, PARP14 KH8-WWE-ART; experiment: EMSA; 0.5 uM RNA, 1-5 uM protein, 5 mM Mg2+; possible slight nuclease contamination; EMSA: 20 mM HEPES-KOH pH 7.6, 5 mM MgCl2, 1 mM DTT, 20% glycerol, 1 h room temperature, 6% native PAGE; NMR: 10 mM sodium phosphate, 222 mM NaCl, 2.7 mM KCl, 2; settings: protein: recombinant; label: 5' Cy3; single strand
[4] = molecular target: T3, PARP14 WWE-ART; experiment: EMSA; 0.5 uM RNA, 1-5 uM protein, 5 mM Mg2+; EMSA: 20 mM HEPES-KOH pH 7.6, 5 mM MgCl2, 1 mM DTT, 20% glycerol, 1 h room temperature, 6% native PAGE; NMR: 10 mM sodium phosphate, 222 mM NaCl, 2.7 mM KCl, 2; settings: protein: recombinant; label: 5' Cy3; single strand

PARP1 full-length, sequence (P09874 2-1014 V762A): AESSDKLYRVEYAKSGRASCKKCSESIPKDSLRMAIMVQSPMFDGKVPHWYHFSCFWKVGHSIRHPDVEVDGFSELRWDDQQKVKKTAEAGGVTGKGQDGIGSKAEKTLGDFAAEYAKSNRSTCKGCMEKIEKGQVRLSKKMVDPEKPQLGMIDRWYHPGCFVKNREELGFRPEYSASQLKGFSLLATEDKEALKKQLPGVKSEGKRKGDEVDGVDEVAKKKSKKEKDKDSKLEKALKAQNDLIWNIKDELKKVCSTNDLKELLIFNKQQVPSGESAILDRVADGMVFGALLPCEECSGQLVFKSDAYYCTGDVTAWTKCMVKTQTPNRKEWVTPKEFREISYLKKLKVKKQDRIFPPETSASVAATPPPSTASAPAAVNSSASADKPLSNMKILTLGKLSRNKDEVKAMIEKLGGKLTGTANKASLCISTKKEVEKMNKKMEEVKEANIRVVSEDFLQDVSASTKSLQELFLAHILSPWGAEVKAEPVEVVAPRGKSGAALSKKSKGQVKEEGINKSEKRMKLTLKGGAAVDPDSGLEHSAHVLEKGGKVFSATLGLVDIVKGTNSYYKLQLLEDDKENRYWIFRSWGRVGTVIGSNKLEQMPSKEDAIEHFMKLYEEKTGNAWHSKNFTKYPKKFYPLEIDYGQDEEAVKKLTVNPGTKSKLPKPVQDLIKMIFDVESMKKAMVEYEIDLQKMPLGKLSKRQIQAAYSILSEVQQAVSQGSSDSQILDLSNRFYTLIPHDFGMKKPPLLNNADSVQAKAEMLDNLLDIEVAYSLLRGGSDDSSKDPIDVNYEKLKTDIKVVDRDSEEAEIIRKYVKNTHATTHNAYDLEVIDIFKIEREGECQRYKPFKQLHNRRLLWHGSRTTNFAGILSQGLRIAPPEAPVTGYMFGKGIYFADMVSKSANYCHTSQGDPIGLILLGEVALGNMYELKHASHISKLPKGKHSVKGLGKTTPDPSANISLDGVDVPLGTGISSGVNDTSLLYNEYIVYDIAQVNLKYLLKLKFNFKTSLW

Binder | binding result [1] | binding result [2] | binding result [3] | binding result [4]
GCTGGCTTCGTAAGAAGCCAGCTCGCGGTCAGCTTGCTGACCGCG (structured_DNA, 5' phosphate) [45-nt DNA dumbbell] | binds | – | – | –
GUGGCGCGGAGACUUAGAGAA (ssRNA) [E21 RNA] | – | binds | binds | no binding
